Experimental data as given in patent US10907134B2, “Mutated genes for the catalytic protein of oplophorus luciferase and use thereof” (JNC CORPORATION, priority 2013, dated 2021).

Columns and labels:
[1] = Substrate specificities of KAZ mutants (ZZ-fused, crude enzyme), bis-CTZ; assay type: biochemical; details: 1 μg substrate; for Relative Luminescence Activity bis-CTZ Int.: integrated for 60 seconds; for Relative Luminescence Activity bis-CTZ Imax: maximum intensity of luminescence
Method: (§1) The coelenterazine analogues used for substrate specificity studies were synthesized by the methods described in publications. Specifically, bis-coelenterazine was synthesized by the method described in Nakamura et al. (1997) Tetrahedron Lett. 38: 6405-6406; furimazine by the method described in Hall et al. (2012) ACS Chem. Biol. […]; and, 6h-coelenterazine, f-coelenterazine and 6h-f-coelenterazine by the methods described in Inouye et al (2013) Biochem. Biophys. Res. Commun. 437: 23-28.
(§2) DTT was added to the crude enzyme solutions obtained in EXAMPLE 17 at a final concentration of 1 mM and the mixtures were allowed to stand in an ice water for more than 5 hours in the same manner as Example 8. A luminescence reaction was started by the addition of 1 μL each of the crude enzyme solutions to 100 μL of TE containing 1 μg of coelenterazine (manufactured by JNC Corp.) or its analogues. The luminescence activities were determined using a luminometer (manufactured by Atto Inc.: AB2200) for 60 seconds, and the maximum intensity of luminescence (Imax) was shown as relative luminescence activity.

[2] = Substrate specificities of KAZ mutants (ZZ-fused, crude enzyme), h-CTZ; assay type: biochemical; details: 1 μg substrate; for Relative Luminescence Activity h-CTZ Int.: integrated for 60 seconds; for Relative Luminescence Activity h-CTZ Imax: maximum intensity of luminescence
Method: as §1, §2

CHO-K1 cells = assay: Luminescence activity of KAZ mutants expressed in animal culture cells with signal peptide of Gaussia luciferase for secretion; assay type: cell-based, Chinese hamster; details: pcDNA3-GLsp- vectors; for Relative Luminescence Activity (Imax) (%) Cell Extracts / Relative Luminescence Activity (Imax) (%) Culture Medium: Table 5, CHO-K1, 48 hours, 0.5 μg coelenterazine; for Relative Luminescence Activity (Imax) (%) Cell Extracts: 5 μL cell extracts; for Relative Luminescence Activity (Imax) (%) Culture Medium: 5 μL culture medium; for Relative Luminescence Activity (%, Imax) Cell Extracts / Relative Luminescence Activity (%, Imax) Culture Medium: Table 11, CHO-K1, coelenterazine
Method: Chinese hamster ovary cell line CHO-K1 was cultured in Ham's F-12 medium (manufactured by Wako Pure Chemical Industries, Ltd.) supplemented with 10% (v/v) fetal bovine serum (manufactured by Biowest Inc.). The CHO-K1 cells were plated in a 6-well plate in 1×10^5 cells/well/2 mL medium (n=2) and cultured in an incubator at 37° C. in 5% (v/v) CO2. After 24 hours, the purified recombinant plasmid was transfected to CHO-K1 cells using a FuGene HD transfection kit (manufactured by Promega Corp.), which was provided for subsequent experiment. Specifically, 1 μg of the recombinant plasmid pGL4.13 [Luc2/sv40], 0.1 μg of the internal standard vector and 3 μL of FuGene HD were added to 100 μL of the medium, which was allowed to stand at room temperature for 15 minutes. Subsequently, 100 μL of the DNA-FuGene complex was added to the cells in the 6 wells. After incubation for 48 hours, the culture medium was collected. On the other hand, the KAZ mutants expressed in the cells were washed 3 times with 3 mL of 1×PBS, then suspended in 1 mL of 1×PBS and disrupted on ice by ultrasonication, which was used as enzyme solutions of the cell-extracts of KAZ mutants.
A luminescence reaction was started by adding 5 μL of the culture media and cell extracts obtained in EXAMPLE 10 to 100 μL of 30 mM Tris-HCl (pH 7.6)-10 mM EDTA (manufactured by Wako Pure Chemical Industries, Ltd.) containing 0.5 μg of coelenterazine (manufactured by INC Corp.). The luminescence activity was determined using a luminometer (manufactured by Atto Inc.: AB2200) for 60 seconds, and the maximum intensity of luminescence (Imax) was defined as a percentage.
Culture media of the KAZ mutants with two amino acid substitutions and KAZ mutants with three amino acid substitutions and the enzyme solutions of the cell-extracts of KAZ mutants were prepared in the same manner as EXAMPLE 10.
In the resultant enzyme solutions and the enzyme solutions of the cell-extracts of KAZ mutants, luminescence activities were determined in the same manner as EXAMPLE 11.

[3] = Substrate specificities of KAZ mutants (ZZ-fused, crude enzyme), furimazine; assay type: biochemical; details: 1 μg substrate; for Relative Luminescence Activity Furimazine Int.: integrated for 60 seconds; for Relative Luminescence Activity Furimazine Imax: maximum intensity of luminescence
Method: as §1, §2

[4] = Substrate specificities of KAZ mutants (ZZ-fused, crude enzyme), 6h-CTZ; assay type: biochemical; details: for Relative Luminescence Activity 6h-CTZ Int. / Relative Luminescence Activity 6h-CTZ Imax: 1 μg substrate; for Relative Luminescence Activity 6h-CTZ Int.: integrated for 60 seconds; for Relative Luminescence Activity 6h-CTZ Imax: maximum intensity of luminescence
Method: as §1, §2

[5] = Substrate specificities of KAZ mutants (ZZ-fused, crude enzyme), f-CTZ; assay type: biochemical; details: 1 μg substrate; for Relative Luminescence Activity f-CTZ Int.: integrated for 60 seconds; for Relative Luminescence Activity f-CTZ Imax: maximum intensity of luminescence
Method: as §1, §2

B1: KAZ-A54I: KAZ with single amino acid substitution A54I, SEQ ID NO: 6 (protein)
chain: FTLADFVGDWQQTAGYNQDQVLEQGGLSSLFQALGVSVTPIQKVVLSGENGLKIDIHVIIPYEGLSGFQMGLIEMIFKVVYPVDDHHFKIILHYGTLVIDGVTPNMIDYFGRPYPGIAVFDGKQITVTGTLWNGNKIYDERLINPDGSLLFRVTINGVTGWRLCENILA
- Relative Luminescence Activity bis-CTZ Int. [1]: 3.4
- Relative Luminescence Activity bis-CTZ Imax [1]: 3.0
- Relative Luminescence Activity h-CTZ Int. [2]: 6.9
- Relative Luminescence Activity h-CTZ Imax [2]: 11.8
- Relative Luminescence Activity (Imax) (%) Cell Extracts (CHO-K1 cells): 2.4%
- Relative Luminescence Activity (Imax) (%) Culture Medium (CHO-K1 cells): less than 0.01%
- Relative Luminescence Activity Furimazine Int. [3]: 2.1
- Relative Luminescence Activity Furimazine Imax [3]: 2.0
- Relative Luminescence Activity 6h-CTZ Int. [4]: 2.1
- Relative Luminescence Activity 6h-CTZ Imax [4]: 1.6
- Relative Luminescence Activity f-CTZ Int. [5]: 4.9
- Relative Luminescence Activity f-CTZ Imax [5]: 8.2

B2: KAZ-V44I: KAZ with single amino acid substitution V44I, SEQ ID NO: 4 (protein)
chain: FTLADFVGDWQQTAGYNQDQVLEQGGLSSLFQALGVSVTPIQKIVLSGENGLKADIHVIIPYEGLSGFQMGLIEMIFKVVYPVDDHHFKIILHYGTLVIDGVTPNMIDYFGRPYPGIAVFDGKQITVTGTLWNGNKIYDERLINPDGSLLFRVTINGVTGWRLCENILA
- Relative Luminescence Activity bis-CTZ Int. [1]: 1.4
- Relative Luminescence Activity bis-CTZ Imax [1]: 1.1
- Relative Luminescence Activity h-CTZ Int. [2]: 2.2
- Relative Luminescence Activity h-CTZ Imax [2]: 3.7
- Relative Luminescence Activity (Imax) (%) Cell Extracts (CHO-K1 cells): 0.7%
- Relative Luminescence Activity (Imax) (%) Culture Medium (CHO-K1 cells): less than 0.01%
- Relative Luminescence Activity Furimazine Int. [3]: 0.9
- Relative Luminescence Activity Furimazine Imax [3]: 0.6
- Relative Luminescence Activity 6h-CTZ Int. [4]: 0.6
- Relative Luminescence Activity 6h-CTZ Imax [4]: 0.4
- Relative Luminescence Activity f-CTZ Int. [5]: 2.0
- Relative Luminescence Activity f-CTZ Imax [5]: 2.1

B3: KAZ-A54I-Y138I: KAZ mutant with two amino acid substitutions A54I and Y138I, SEQ ID NO: 14 (protein)
chain: FTLADFVGDWQQTAGYNQDQVLEQGGLSSLFQALGVSVTPIQKVVLSGENGLKIDIHVIIPYEGLSGFQMGLIEMIFKVVYPVDDHHFKIILHYGTLVIDGVTPNMIDYFGRPYPGIAVFDGKQITVTGTLWNGNKIIDERLINPDGSLLFRVTINGVTGWRLCENILA
- Relative Luminescence Activity bis-CTZ Int. [1]: 9.2
- Relative Luminescence Activity bis-CTZ Imax [1]: 9.5
- Relative Luminescence Activity h-CTZ Int. [2]: 12.9
- Relative Luminescence Activity h-CTZ Imax [2]: 24.2
- Relative Luminescence Activity (%, Imax) Cell Extracts (CHO-K1 cells): 16.0%
- Relative Luminescence Activity (%, Imax) Culture Medium (CHO-K1 cells): 0.03%
- Relative Luminescence Activity Furimazine Int. [3]: 5.8
- Relative Luminescence Activity Furimazine Imax [3]: 5.9
- Relative Luminescence Activity 6h-CTZ Int. [4]: 6.1
- Relative Luminescence Activity 6h-CTZ Imax [4]: 5.8
- Relative Luminescence Activity f-CTZ Int. [5]: 9.2
- Relative Luminescence Activity f-CTZ Imax [5]: 19.7

B4: KAZ-Y138I: KAZ with single amino acid substitution Y138I, SEQ ID NO: 8 (protein)
chain: FTLADFVGDWQQTAGYNQDQVLEQGGLSSLFQALGVSVTPIQKVVLSGENGLKADIHVIIPYEGLSGFQMGLIEMIFKVVYPVDDHHFKIILHYGTLVIDGVTPNMIDYFGRPYPGIAVFDGKQITVTGTLWNGNKIIDERLINPDGSLLFRVTINGVTGWRLCENILA
- Relative Luminescence Activity bis-CTZ Int. [1]: 1.5
- Relative Luminescence Activity bis-CTZ Imax [1]: 1.3
- Relative Luminescence Activity h-CTZ Int. [2]: 3.0
- Relative Luminescence Activity h-CTZ Imax [2]: 3.9
- Relative Luminescence Activity (Imax) (%) Cell Extracts (CHO-K1 cells): 1.0%
- Relative Luminescence Activity (Imax) (%) Culture Medium (CHO-K1 cells): less than 0.01%
- Relative Luminescence Activity Furimazine Int. [3]: 0.8
- Relative Luminescence Activity Furimazine Imax [3]: 0.6
- Relative Luminescence Activity 6h-CTZ Int. [4]: 0.3
- Relative Luminescence Activity 6h-CTZ Imax [4]: 0.2
- Relative Luminescence Activity f-CTZ Int. [5]: 2.4
- Relative Luminescence Activity f-CTZ Imax [5]: 2.4

B5: KAZ-V44I-A54I: KAZ mutant with two amino acid substitutions V44I and A54I, SEQ ID NO: 10 (protein)
chain: FTLADFVGDWQQTAGYNQDQVLEQGGLSSLFQALGVSVTPIQKIVLSGENGLKIDIHVIIPYEGLSGFQMGLIEMIFKVVYPVDDHHFKIILHYGTLVIDGVTPNMIDYFGRPYPGIAVFDGKQITVTGTLWNGNKIYDERLINPDGSLLFRVTINGVTGWRLCENILA
- Relative Luminescence Activity bis-CTZ Int. [1]: 5.9
- Relative Luminescence Activity bis-CTZ Imax [1]: 5.7
- Relative Luminescence Activity h-CTZ Int. [2]: 8.7
- Relative Luminescence Activity h-CTZ Imax [2]: 17.9
- Relative Luminescence Activity (%, Imax) Cell Extracts (CHO-K1 cells): 13.9%
- Relative Luminescence Activity (%, Imax) Culture Medium (CHO-K1 cells): 0.07%
- Relative Luminescence Activity Furimazine Int. [3]: 4.3
- Relative Luminescence Activity Furimazine Imax [3]: 3.4
- Relative Luminescence Activity 6h-CTZ Int. [4]: 5.6
- Relative Luminescence Activity 6h-CTZ Imax [4]: 4.5
- Relative Luminescence Activity f-CTZ Int. [5]: 5.2
- Relative Luminescence Activity f-CTZ Imax [5]: 11.3

B6: KAZ-V44I-A54I-Y138I: KAZ mutant with three amino acid substitutions V44I, A54I and Y138I, SEQ ID NO: 16 (protein)
chain: FTLADFVGDWQQTAGYNQDQVLEQGGLSSLFQALGVSVTPIQKIVLSGENGLKIDIHVIIPYEGLSGFQMGLIEMIFKVVYPVDDHHFKIILHYGTLVIDGVTPNMIDYFGRPYPGIAVFDGKQITVTGTLWNGNKIIDERLINPDGSLLFRVTINGVTGWRLCENILA
- Relative Luminescence Activity bis-CTZ Int. [1]: 11.9
- Relative Luminescence Activity bis-CTZ Imax [1]: 13.3
- Relative Luminescence Activity h-CTZ Int. [2]: 33.2
- Relative Luminescence Activity h-CTZ Imax [2]: 83.1
- Relative Luminescence Activity (%, Imax) Cell Extracts (CHO-K1 cells): 16.2%
- Relative Luminescence Activity (%, Imax) Culture Medium (CHO-K1 cells): 1.7%
- Relative Luminescence Activity Furimazine Int. [3]: 9.2
- Relative Luminescence Activity Furimazine Imax [3]: 10.6
- Luminescence activity compared with dnKAZ with 6h-coelenterazine [4]: higher luminescence activity than dnKAZ
- Relative Luminescence Activity 6h-CTZ Int. [4]: 11.1
- Relative Luminescence Activity 6h-CTZ Imax [4]: 12.9
- Relative Luminescence Activity f-CTZ Int. [5]: 9.5
- Relative Luminescence Activity f-CTZ Imax [5]: 43.8

B7: KAZ-V44I-Y138I: KAZ mutant with two amino acid substitutions V44I and Y138I, SEQ ID NO: 12 (protein)
chain: FTLADFVGDWQQTAGYNQDQVLEQGGLSSLFQALGVSVTPIQKIVLSGENGLKADIHVIIPYEGLSGFQMGLIEMIFKVVYPVDDHHFKIILHYGTLVIDGVTPNMIDYFGRPYPGIAVFDGKQITVTGTLWNGNKIIDERLINPDGSLLFRVTINGVTGWRLCENILA
- Relative Luminescence Activity bis-CTZ Int. [1]: 8.3
- Relative Luminescence Activity bis-CTZ Imax [1]: 7.9
- Relative Luminescence Activity h-CTZ Int. [2]: 9.7
- Relative Luminescence Activity h-CTZ Imax [2]: 19.1
- Relative Luminescence Activity (%, Imax) Cell Extracts (CHO-K1 cells): 11.2%
- Relative Luminescence Activity (%, Imax) Culture Medium (CHO-K1 cells): less than 0.01%
- Relative Luminescence Activity Furimazine Int. [3]: 5.4
- Relative Luminescence Activity Furimazine Imax [3]: 5.1
- Relative Luminescence Activity 6h-CTZ Int. [4]: 5.3
- Relative Luminescence Activity 6h-CTZ Imax [4]: 4.3
- Relative Luminescence Activity f-CTZ Int. [5]: 7.4
- Relative Luminescence Activity f-CTZ Imax [5]: 13.3
